Measurements taken from patent publication US20260043041A1, “HSL PROTEIN, GENE, VECTOR, CELL, COMPOSITION AND USE THEREOF, AND METHOD FOR IMPROVING HERBICIDE RESISTANCE OF CROPS” (CENTRAL CHINA NORMAL UNIVERSITY, priority 2022, published 2026).
Entries after “also recorded” stand apart in the source; their conditions may differ.

T1: rice OsHSL1 (SEQ ID NO: 1) mutant OsHSL1_L204F/F298L/I335A (Oryza sativa, UniProt A0A7G1K9G4, F298L/I335A/L204F)
T1 construct: isolated enzyme, HPLC assay; I335A may be a misprint of I335F
T1 sequence (A0A7G1K9G4 1-350 L204F/F298L/I335A): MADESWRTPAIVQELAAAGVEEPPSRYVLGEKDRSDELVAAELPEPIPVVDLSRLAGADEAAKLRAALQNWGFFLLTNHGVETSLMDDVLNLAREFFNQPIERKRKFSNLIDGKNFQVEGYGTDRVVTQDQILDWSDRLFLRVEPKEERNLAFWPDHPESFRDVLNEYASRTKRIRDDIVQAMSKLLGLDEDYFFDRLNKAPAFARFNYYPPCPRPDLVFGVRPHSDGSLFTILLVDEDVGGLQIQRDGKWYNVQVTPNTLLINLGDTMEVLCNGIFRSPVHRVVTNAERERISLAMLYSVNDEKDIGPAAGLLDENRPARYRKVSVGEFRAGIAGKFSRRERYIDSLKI


Columns and labels:
[1] = target: T2, rice OsHSL1 (SEQ ID NO: 1) mutant OsHSL1_I335F (Oryza sativa, UniProt A0A7G1K9G4, I335F); assay: Enzyme kinetic parameters with HPPD inhibitors as substrate (HPLC); assay type: biochemical; settings: compared with OsHSL1 wild type
T2 construct: isolated enzyme, HPLC assay
From the text: (§1) High Performance Liquid Chromatography (HPLC) was used to test OsHIS1 wild-type protein (the amino acid sequence of OsHIS1 wild-type is shown as SEQ ID NO 2, and the corresponding nucleotide sequence is shown as SEQ ID NO 21), the enzyme kinetic parameters of OsHSL1 wild-type protein and some OsHSL1 mutant proteins with higher reactivity and HPPD inhibitors, and the specific results are shown in Table 9-Table 12. […] Each sample was replicated three times. • e.

[2] = target: T1, rice OsHSL1 (SEQ ID NO: 1) mutant OsHSL1_L204F/F298L/I335A; assay: as above; assay type: biochemical
From the text: as §1

[3] = target: T3, rice OsHSL1 (SEQ ID NO: 1) mutant OsHSL1_F140H/L204F/F298L/I335A (Oryza sativa, UniProt A0A7G1K9G4, F140H/F298L/I335A/L204F); assay: as above; assay type: biochemical; settings: compared with OsHSL1 wild type; close to the OsHIS1 wild type
T3 construct: isolated enzyme, HPLC assay
From the text: as §1

[4] = test system: OsHSL1 wild type T1 generation positive rice plants; assay: Herbicide resistance test, over-expression in rice (stem-leaf treatment); assay type: in vivo; settings: 2 g/mu and 8 g/mu
Method: (§2) Successfully overexpressed OsHSL1_F140H/L204F/F298L/I335A mutants and OsHSL1 wild type TO generation tissue culture seedlings were selected, cultivated and harvested, and then sown to offspring population T1 generation rice plants, and positive over-expression rice plants were identified.
(§3) OsHSL1_F140H/L204F/F298L/I335A mutant T1 generation positive rice plants and OsHSL1 wild-type T1 generation positive rice plants at 3 weeks of seedling age were treated with different concentrations of methyl-benquitrione aqueous solution on the Stem leaves, and OsHSL1 wild-type T1 generation positive rice plants as a control. The resistance of mutant OsHSL1_F140H/L204F/F298L/I335A to methyl-benquitrione was tested, and the specific results were shown in FIG. 1.

[5] = test system: OsHSL1_F140H/L204F/F298L/I335A mutant T1 generation positive rice plants; assay: as above; assay type: in vivo; settings: 2 g/mu and 8 g/mu, after 23 days of treatment
Method: as §2, §3

[6] = Catalytic activity of HSL proteins on HPPD inhibitors (HPLC, substrate consumption); assay type: biochemical; settings: 30° C., 10 h, protein 0.5 mg/mL; for Catalytic efficiency (%) Compound A: substrate Compound A 50 μM; for Catalytic efficiency (%) benzobicyclon technical: substrate benzobicyclon technical 50 μM; for Catalytic efficiency (%) Mesotrione: substrate mesotrione 50 μM; for Catalytic efficiency (%) methyl-benquitrione: substrate methyl-benquitrione 50 μM; for Catalytic efficiency (%) pyraquinate technical: substrate pyraquinate technical 50 μM; for Catalytic efficiency (%) tefuryltrione: substrate tefuryltrione 50 μM; for Catalytic efficiency (%) tembotrione: substrate tembotrione 50 μM
Method: (§4) Each sample was replicated three times. • e.
(§5) Control: refers to the addition of inhibitors to the reaction system, but not the addition of enzymes, which is regarded as the substrate surplus when the inhibitor is not catalyzed.
(§6) Sample: in the enzyme reaction system, the same volume and the same concentration (50 μM) of the inhibitor was added, and the catalytic efficiency of the enzyme to the inhibitor was observed.
(§7) Catalytic efficiency=(1−(peak area of substrate in sample)/(peak area of substrate in control))×100%.

[7] = assay type: biochemical; settings: for Catalytic efficiency (%) topramezone: substrate topramezone 50 μM, 30° C., 10 h, protein 0.5 mg/mL
Method: as §4, §5, §6, §7

[8] = Enzyme kinetic parameter study (HPLC, Michaelis-Menten fit); assay type: biochemical; settings: statement on Table 11
From the text: as §1

[9] = test system: T1 generation positive rice plants; assay: Herbicide resistance test of over-expression in rice (methyl-benquitrione stem-leaf treatment); assay type: in vivo; settings: conclusion from FIG. 1
Method: as §2, §3
FIG. 1 is a graph showing the sensitivity of OsHSL1_F140H/L204F/F298L/I335A mutant T1 generation positive rice plants and OsHSL1 wild type T1 generation positive rice plants to the HPPD inhibitor methyl-benquitrione.

Row | Molecule | Catalytic efficiency (%) Compound A [6] [%] | Catalytic efficiency (%) benzobicyclon technical [6] [%] | Catalytic efficiency (%) Mesotrione [6] [%] | Catalytic efficiency (%) methyl-benquitrione [6] [%] | Catalytic efficiency (%) pyraquinate technical [6] [%] | Catalytic efficiency (%) tefuryltrione [6] [%] | Catalytic efficiency (%) tembotrione [6] [%] | Catalytic efficiency (%) topramezone [7] [%] | also measured
1 | Cc1c(C(=O)c2cnn(C)c2O)ccc(S(C)(=O)=O)c1C1=NOCC1 [topramezone] | – | – | – | – | – | – | – | – | catalytic efficiency (in words) [1]: obviously superior
2 | Cc1nn(C)c(O)c1C(=O)c1ccc2c(c1C)c(=O)n(-c1cccc(Cl)c1)c(=O)n2C [pyraquinate technical, pyraquinate] | – | – | – | – | – | – | – | – | affinity and catalytic efficiency (in words) ([2]; compared with OsHIS1 wild type and OsHSL1 wild type): superior; Kcat ([2]; pH 7.0, 30° C., about 20 min): 0.00135 s⁻¹
3 | Cc1ccccc1-n1c(=O)c2c(C)c(C(=O)C3=C(O)CCCC3=O)ccc2n(C)c1=O [methyl-benquitrione] | – | – | – | – | – | – | – | – | affinity and catalytic efficiency (in words) [3]: better affinity and catalytic efficiency; albinism symptoms ([4]; after 16 days of treatment): almost all have albinism symptoms; albino symptoms ([4]; after 23 days of treatment): albino symptoms become very obvious; sensitivity (plant colour) [5]: basically keep normal green
4 | OsHSL1_I335F: SEQ ID NO.1 with the isoleucine at site 335 mutated to phenylalanine (protein, listed as Oryza sativa) MADESWRTPAIVQELAAAGVEEPPSRYVLGEKDRSDELVAAELPEPIPVVDLSRLAGADEAAKLRAALQNWGFFLLTNHGVETSLMDDVLNLAREFFNQPIERKRKFSNLIDGKNFQVEGYGTDRVVTQDQILDWSDRLFLRVEPKEERNLAFWPDHPESFRDVLNEYASRTKRIRDDIVQAMSKLLGLDEDYFFDRLNKAPALARFNYYPPCPRPDLVFGVRPHSDGSLFTILLVDEDVGGLQIQRDGKWYNVQVTPNTLLINLGDTMEVLCNGIFRSPVHRVVTNAERERISLAMFYSVNDEKDIGPAAGLLDENRPARYRKVSVGEFRAGIFGKFSRRERYIDSLKI | 0 | 44 | 15 | 0 | 24 | 98 | 62 | 100 | degradation of topramezone (in words) [7]: can completely degrade topramezone; effect on topramezone degradation versus OsHSL1 wild type (in words) [7]: significantly better effect on topramezone degredation than OsHSL1 wild type; Catalytic efficiency (%) 30 min ([7]; topramezone degradation, reaction time 30 min): 97%; Catalytic efficiency (%) 60 min ([7]; topramezone degradation, reaction time 60 min): 100%; Catalytic efficiency (%) 120 min ([7]; topramezone degradation, reaction time 120 min): 100%; Catalytic efficiency (%) 300 min ([7]; topramezone degradation, reaction time 300 min): 100%; Catalytic efficiency (%) 600 min ([7]; topramezone degradation, reaction time 600 min): 100%; catalytic efficiency to topramezone versus wild type (in words) [8]: obviously superior to that of OsHSL1 wild type
5 | OsHSL1_F140H/L204F/F298L/I335A: SEQ ID NO.1 with F140 to histidine, L204 to phenylalanine, F298 to leucine, I335 to alanine (protein) MADESWRTPAIVQELAAAGVEEPPSRYVLGEKDRSDELVAAELPEPIPVVDLSRLAGADEAAKLRAALQNWGFFLLTNHGVETSLMDDVLNLAREFFNQPIERKRKFSNLIDGKNFQVEGYGTDRVVTQDQILDWSDRLHLRVEPKEERNLAFWPDHPESFRDVLNEYASRTKRIRDDIVQAMSKLLGLDEDYFFDRLNKAPAFARFNYYPPCPRPDLVFGVRPHSDGSLFTILLVDEDVGGLQIQRDGKWYNVQVTPNTLLINLGDTMEVLCNGIFRSPVHRVVTNAERERISLAMLYSVNDEKDIGPAAGLLDENRPARYRKVSVGEFRAGIAGKFSRRERYIDSLKI | 97 | 100 | 90 | 95 | 40 | 85 | 71 | 4 | resistance of over-expressing rice plants to methyl-benquitrione [9]: can improve the resistance; also recorded: obvious resistance
